B1: scFv p61.15 (scFv, V domains shown)
VH: QVQLVQSGAEVKKPGASVKVSCKASGYTFTNYFMHWVRQAPGQGLEWMGVFNPRGGSTTYAQKFQGRITMTSDPSTSTVYMELTSLTSEDTAMYYCARMGSVTGPVGHRWLDPWGQGTLVTVSS
VL: EIVLTQSPATLSLSPGERAALSCRASQSVDTYLAWYQQKPGQAPRLLIYDASTRAPGIPARFSGSGSGTDFTLTISSLEPEDFAVYYCQQRYNWPPITFGQGTRLEIK
notes: also called bnAb p61.15; nAb p61.15
B2: p61.15 scFv (SPR analyte) (scFv, V domains shown)
VH: B1 VH
VL: B1 VL
notes: also called scFv-p61.15
B3: p61.15 IgG1 (antibody, V domains shown)
VH: B1 VH
VL: B1 VL
notes: also called nAb p61.15; bnAb p61.15
B4: murine bnAb 8G12 (antibody, V domains shown)
VH: QLQQSGPELVKPGASVKISCKASGYTFTDFNMHWVKQSHGKSLEWIGYIYPYNGITGQNQKFKSKATLTVDNSSSSAYMELRSLTSEDSAVYYCARERFGVGNNYAWFTYWGQGTLVTVSS
VL: DIQMTQSPASLSVSVGETVTITCRASENIYSNLVWYQQKQGKSPQVLVYAATNLPDGVPSRFSGSGSGTQYSLKINSLQSEDSGSYYCQHFWETPFTFGSGTKLEIK
notes: also called control bnAb 8G12
B5: scFv p60.12 (scFv, V domains shown)
VH: QVQLVQSGAEVKKPGSSVKVSCKASGDTFSSYVISWVRQAPGQGLEWMGGIIPIIGTANYAPKFQDTVTITADKSTNTVYMEMRSLRSEDTAVYYCASNVQLQRRGNWFDPWGQGTLVTVSS
VL: QSALTQPASVSGSPGQSITISCTGTSSDIGDYNFVSWYQQHPGKAPKLMIFDVTNRPSGVSNRFSGSKSGNTASLTISGLQVEDEADYYCSSYTSTNTPVVFGGGTKLTVL
notes: also called bnAb p60.12; nAb p60.12
B6: p60.12 scFv (SPR analyte) (scFv, V domains shown)
VH: B5 VH
VL: B5 VL
B7: scFv p60.15 (scFv, V domains shown)
VH: EVQLVQSGAELKKPGESLRISCKGSGYDFANYWIGWVRQMPGKGLEWMGIIYPRDSDIRYSPSFQGQVTISADKSISTAYLQLSSLKASDTAMYYCARHLRGLRLGELFPFDYWGQGTLVTVSS
VL: AIQLTQSPSSLSASVGDSVTITCRASQDIFSYLAWYQQKPGKAPKLLIYAASTLQSGVPSRFSGSGSGTDFTLTISSLQPEDFATYYCQQLNRYPFAFGPGTKVDIK
notes: also called bnAb p60.15; nAb p60.15
B8: p60.15 IgG1 (antibody, V domains shown)
VH: B7 VH
VL: B7 VL
notes: also called nAb p60.15; bnAb p60.15
B9: scFv p60.1 (scFv, V domains shown)
VH: EVQLQQSGPGLVKPSQTLSLICAISGDSVSTINAAWNWIRQSPSRGLEWLGRTYYRSKWYHEYATSVQGRIIITPDTSKNQFSLQLNSVTPEDSAVYFCARDRGPTPFDFWGQGTLVTVSS
VL: DIQMTQSPSSLSASVGDSVTITCRANQSISRSLNWYQQQPGKAPNLLIYAASHLHSGVSSRFSGSGSGADFALTISSLQPEDFATYHCQQSFVTPFTFGPGTKVDLK
notes: also called bnAb p60.1; nAb p60.1
B10: p60.1 scFv (SPR analyte) (scFv, V domains shown)
VH: B9 VH
VL: B9 VL
notes: also called scFv-p60.1

Experiments:
Details in all cases: both partners purified
[1] = target: T1, non-glycosylated HEV GT 3 pORF2 P domain (Hepatitis E virus genotype 3, …); test: SPR
T1 construct: also called non-glycosylated GT 3 P domain; HEV GT3 P domain; not shown: double strep tag, N-terminal, kept

[2] = target: T2, non-glycosylated HEV GT 2 pORF2 P domain (Hepatitis E virus genotype 2, isolate …, UniProt Q03500, strain); test: SPR
T2 construct: also called HEV GT 2 P domain; source: Drosophila S2 cells, purified from cell lysates (Strep-Tactin XT, SEC); not shown: double strep tag, N-terminal, kept

[3] = target: T3, non-glycosylated HEV GT 4 pORF2 P domain (Hepatitis E virus genotype 4, isolate …, UniProt Q9IVZ8, strain); test: SPR
T3 construct: also called HEV GT 4 P domain; source: Drosophila S2 cells, purified from cell lysates (Strep-Tactin XT, SEC); not shown: double strep tag, N-terminal, kept

[4] = target: T4, non-glycosylated HEV GT 1 pORF2 P domain (Hepatitis E virus genotype 1, isolate …, UniProt P33426, strain); test: SPR
T4 construct: also called HEV GT 1 P domain; source: Drosophila S2 cells, purified from cell lysates (Strep-Tactin XT, SEC); not shown: double strep tag, N-terminal, kept

[5] = target: T5, glycosylated HEV GT 3 pORF2 P domain dimer (amino acids 456-660), secreted, carrying a glycan at N562 (Hepatitis E virus genotype 3, isolate …, strain); test: SPR
T5 construct: not shown: double strep tag, N-terminal, kept

[6] = target: T6, non-glycosylated HEV GT 3 pORF2 P domain dimer (amino acids 456-660), expressed in the cytosol (Hepatitis E virus genotype 3, isolate …, strain); test: SPR
T6 construct: not shown: double strep tag, N-terminal, kept

[7] = target: T5, glycosylated HEV GT 3 pORF2 P domain …; test: ELISA; plates coated with 100 ng P domain per well in PBS overnight at 4 °C; antibody (IgG) at 2 μg/ml, 1 h at room temperature; HRP-conjugated goat anti-human antibody
[8] = target: T6, non-glycosylated HEV GT 3 pORF2 P …; test: as above
[9] = target: T7, non-glycosylated rat HEV pORF2 P domain (Rat hepatitis E virus, R68/DEU/2009 in …); test: as above
T7 construct: not shown: double strep tag, N-terminal, kept

[10] = target: T8, non-glycosylated HEV GT 4 pORF2 P domain (Hepatitis E virus genotype 4, isolate …, UniProt Q9IVZ8, strain); test: as above
T8 construct: also called GT 4 P domain; not shown: double strep tag, N-terminal, kept

[11] = target: T9, non-glycosylated HEV GT 2 pORF2 P domain (Hepatitis E virus genotype 2, isolate …, UniProt Q03500, strain); test: as above
T9 construct: also called GT 2 P domain; not shown: double strep tag, N-terminal, kept

[12] = target: T10, non-glycosylated rat HEV pORF2 P domain (Rat hepatitis E virus, R68/DEU/2009 in …, strain); test: SPR
T10 construct: also called rat HEV P domain; source: Drosophila S2 cells, purified from cell lysates (Strep-Tactin XT, SEC); not shown: double strep tag, N-terminal, kept

[13] = target: T7, non-glycosylated rat HEV pORF2 P domain; test: SPR

Binder | Kd [2] [nM] | koff [2] [s⁻¹] | Kd [3] [nM] | koff [3] [s⁻¹] | Kd [4] [nM] | koff [4] [s⁻¹] | binding result [9] | further results
B1 | 0.896 | 0.000585 | 0.154 | 0.000142 | 1.51 | 0.000604 | – | Kd [1]: 0.0816 nM; koff [1]: 2.56e-05 s⁻¹
B2 | – | – | – | – | – | – | – | binding result [5]: binds; binding result [6]: binds
B3 | – | – | – | – | – | – | no binding (tested: 2 μg/ml) | binding result [7]: binds; binding result [8]: binds
B4 | – | – | – | – | – | – | no binding | binding result [10]: binds; binding result [8]: binds; binding result [11]: binds
B5 | 0.509 | 2.96e-05 | 8.75 | 0.000609 | 3.29 | 0.000325 | – | Kd [12]: 5590 nM; koff [12]: 0.246 s⁻¹
B6 | – | – | – | – | – | – | – | fold lower affinity than to the other four P domains [13]: ~1000 fold
B7 | – | – | – | – | – | – | – | Kd [1]: 0.166 nM; koff [1]: 5.18e-05 s⁻¹
B8 | – | – | – | – | – | – | no binding (tested: 2 μg/ml) | –
B9 | 0.128 | 8.16e-05 | 0.0382 | 5.14e-05 | 0.0238 | 2.56e-05 | – | Kd [12]: 4930 nM; koff [12]: 0.456 s⁻¹
B10 | – | – | – | – | – | – | – | fold lower affinity than to the other four P domains [13]: ~1000 fold

— publication PMC11865592 (Nature Communications, 2025)
